From patent US20060257938A1, “Method of screening for drugs that block ligand binding to a lipid binding protein” (priority 2005, published 2006) come the findings set out here.

What all share (type): binding
Test [1] can be described thus: Probe fluorescence ratio response to oleic acid relative to ADIFAB2. To be noted: for DR/DRAD2 OA: Table 3; for ΔR/DRAΔ2 OA: Table 4. The method, boiled down: (§1)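 Fluorescently labeled rat intestinal FABP variants were read at two emission wavelengths, near the unbound maximum (about 420 to 480 nm) and the FFA-bound maximum (about 495 to 580 nm). R = Fλ1/Fλ2 after subtracting probe-free intensity; ΔR = R+agent − R0, normalized to ADIFAB2 (rI-FABP-L72A).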

A short description of test [2]: Probe fluorescence ratio response to linoleic acid relative to ADIFAB2. To be noted: for DR/DRAD2 LA: Table 3; for ΔR/DRAΔ2 LA: Table 4. The method, boiled down:
as §1

The nature of test [3]: Probe fluorescence ratio response to linolenic acid relative to ADIFAB2. To be noted: for DR/DRAD2 LNA: Table 3; for ΔR/DRAΔ2 LNA: Table 4. An outline of the steps: as §1
The nature of test [4]: Probe fluorescence ratio response to palmitic acid relative to ADIFAB2. As to conditions: for DR/DRAD2 PA: Table 3; for ΔR/DRAΔ2 PA: Table 4. The method, boiled down:
as §1

Test [5] can be described thus: Probe fluorescence ratio response to arachidonic acid relative to ADIFAB2. To be noted: Arachidonic acid; for DR/DRAD2 AA: Table 3; for ΔR/DRAΔ2 AA: Table 4. An outline of the steps:
as §1

B1: A73I, L72A: FABP probe clone, substitutions A73I, L72A vs SEQ ID NO: 2 (protein, listed as Rattus norvegicus)
chain: AFDGTWKVDRNENYEKFMEKMGINVVKRKLGAHDNLKLTITQEGNKFTVKESSNFRNIDVVFELGVDFAYSAIDGTELTGTWTMEGNKLVGKFKRVDNGKELIAVREISGNELIQTYTYEGVEAKRIFKKE
modifications: PEPTIDE (1)...(131) wild-type rat intestinal fatty acid binding protein
For B1, in test [1], the “DR/DRAD2 OA” value is reported as −0.04. In test [2], the “DR/DRAD2 LA” value was −0.04. Besides, the “DR/DRAD2 LNA” value in test [3] is recorded as 0.03. In test [4], the “DR/DRAD2 PA” value is −0.04. Also, the “DR/DRAD2 AA” value in test [5] is 0.38.

B2: D74F, L72A: FABP probe clone, substitutions D74F, L72A vs SEQ ID NO: 2 (protein, listed as Rattus norvegicus)
chain: AFDGTWKVDRNENYEKFMEKMGINVVKRKLGAHDNLKLTITQEGNKFTVKESSNFRNIDVVFELGVDFAYSAAFGTELTGTWTMEGNKLVGKFKRVDNGKELIAVREISGNELIQTYTYEGVEAKRIFKKE
modifications: PEPTIDE (1)...(131) wild-type rat intestinal fatty acid binding protein
Regarding B2, in test [1], the “DR/DRAD2 OA” value turned out to be 0.51. The “DR/DRAD2 LA” value in test [2] is on record as 0.67. The “DR/DRAD2 LNA” value in test [3] came out at 1.04. Moreover, the “DR/DRAD2 PA” value in test [4] turned out to be 0.93. In addition, in test [5], the “DR/DRAD2 AA” value was found to be 0.44.

B3: Y117A, L72A: FABP probe clone, substitutions Y117A, L72A vs SEQ ID NO: 2 (protein, listed as Rattus norvegicus)
chain: AFDGTWKVDRNENYEKFMEKMGINVVKRKLGAHDNLKLTITQEGNKFTVKESSNFRNIDVVFELGVDFAYSAADGTELTGTWTMEGNKLVGKFKRVDNGKELIAVREISGNELIQTATYEGVEAKRIFKKE
modifications: PEPTIDE (1)...(131) wild-type rat intestinal fatty acid binding protein
As for B3, the “DR/DRAD2 OA” value in test [1] was determined as 0.93. For the same molecule, in test [2], the “DR/DRAD2 LA” value came out at 1.01. Also, the “DR/DRAD2 LNA” value in test [3] came out at 0.62. Besides, in test [4], the “DR/DRAD2 PA” value came out at 0.32. For the same molecule, the “DR/DRAD2 AA” value in test [5] is 1.27.

B4: L72M: FABP probe clone, substitution L72M vs SEQ ID NO: 2 (protein, listed as Rattus norvegicus)
chain: AFDGTWKVDRNENYEKFMEKMGINVVKRKLGAHDNLKLTITQEGNKFTVKESSNFRNIDVVFELGVDFAYSMADGTELTGTWTMEGNKLVGKFKRVDNGKELIAVREISGNELIQTYTYEGVEAKRIFKKE
modifications: PEPTIDE (1)...(131) wild-type rat intestinal fatty acid binding protein
B4: the “DR/DRAD2 OA” value in test [1] amounted to 1.49. In addition, the “DR/DRAD2 LA” value in test [2] was 1.46. Besides, the “DR/DRAD2 LNA” value in test [3] is 1.35. For the same molecule, the “DR/DRAD2 PA” value in test [4] was determined as 1.32. Besides, the “DR/DRAD2 AA” value in test [5] was found to be 1.31.

B5: L72G: FABP probe clone, substitution L72G vs SEQ ID NO: 2 (protein, listed as Rattus norvegicus)
chain: AFDGTWKVDRNENYEKFMEKMGINVVKRKLGAHDNLKLTITQEGNKFTVKESSNFRNIDVVFELGVDFAYSGADGTELTGTWTMEGNKLVGKFKRVDNGKELIAVREISGNELIQTYTYEGVEAKRIFKKE
modifications: PEPTIDE (1)...(131) wild-type rat intestinal fatty acid binding protein
Turning to B5, in test [1], the “DR/DRAD2 OA” value is given as 0.52. Besides, in test [2], the “DR/DRAD2 LA” value amounted to 0.48. Besides, the “DR/DRAD2 LNA” value in test [3] is 0.48. In addition, the “DR/DRAD2 PA” value in test [4] is on record as 0.26. The “DR/DRAD2 AA” value in test [5] is on record as 0.62.

B6: A73F, L72A: FABP probe clone, substitutions A73F, L72A vs SEQ ID NO: 2 (protein, listed as Rattus norvegicus)
chain: AFDGTWKVDRNENYEKFMEKMGINVVKRKLGAHDNLKLTITQEGNKFTVKESSNFRNIDVVFELGVDFAYSAFDGTELTGTWTMEGNKLVGKFKRVDNGKELIAVREISGNELIQTYTYEGVEAKRIFKKE
modifications: PEPTIDE (1)...(131) wild-type rat intestinal fatty acid binding protein
In the case of B6, the “DR/DRAD2 OA” value in test [1] was 0.73. For the same molecule, the “DR/DRAD2 LA” value in test [2] came out at 1.23. For the same molecule, the “DR/DRAD2 LNA” value in test [3] turned out to be 1.86. Also, the “DR/DRAD2 PA” value in test [4] is 1.13. In addition, in test [5], the “DR/DRAD2 AA” value turned out to be 1.21.

B7: R106W, L72A: FABP probe clone, substitutions R106W, L72A vs SEQ ID NO: 2 (protein, listed as Rattus norvegicus)
chain: AFDGTWKVDRNENYEKFMEKMGINVVKRKLGAHDNLKLTITQEGNKFTVKESSNFRNIDVVFELGVDFAYSAADGTELTGTWTMEGNKLVGKFKRVDNGKELIAVWEISGNELIQTYTYEGVEAKRIFKKE
modifications: PEPTIDE (1)...(131) wild-type rat intestinal fatty acid binding protein
For the molecule B7, the “DR/DRAD2 OA” value in test [1] came to 0.99. The “DR/DRAD2 LA” value in test [2] was 1.04. Also, in test [3], the “DR/DRAD2 LNA” value stood at 1.03. The “DR/DRAD2 PA” value in test [4] came to 0.41. Further, the “DR/DRAD2 AA” value in test [5] is on record as 1.11.

B8: L1P12E11: FABP probe, substitutions Y14L L72W vs SEQ ID NO: 2 (protein, listed as Rattus norvegicus)
chain: AFDGTWKVDRNENLEKFMEKMGINVVKRKLGAHDNLKLTITQEGNKFTVKESSNFRNIDVVFELGVDFAYSWADGTELTGTWTMEGNKLVGKFKRVDNGKELIAVREISGNELIQTYTYEGVEAKRIFKKE
modifications: PEPTIDE (1)...(131) wild-type rat intestinal fatty acid binding protein
In the case of B8, the “ΔR/DRAΔ2 OA” value in test [1] was −1.0. For the same molecule, the “ΔR/DRAΔ2 LA” value in test [2] is −0.7. Also, the “ΔR/DRAΔ2 LNA” value in test [3] was −0.7. Besides, in test [4], the “ΔR/DRAΔ2 PA” value is on record as −0.1. Further, in test [5], the “ΔR/DRAΔ2 AA” value is −0.5.

B9: L78F, L72A: FABP probe clone, substitutions L78F, L72A vs SEQ ID NO: 2 (protein, listed as Rattus norvegicus)
chain: AFDGTWKVDRNENYEKFMEKMGINVVKRKLGAHDNLKLTITQEGNKFTVKESSNFRNIDVVFELGVDFAYSAADGTEFTGTWTMEGNKLVGKFKRVDNGKELIAVREISGNELIQTYTYEGVEAKRIFKKE
modifications: PEPTIDE (1)...(131) wild-type rat intestinal fatty acid binding protein
Regarding B9, the “DR/DRAD2 OA” value in test [1] was 1.83. Further, the “DR/DRAD2 LA” value in test [2] stood at 2. The “DR/DRAD2 LNA” value in test [3] came to 2.05. In addition, in test [4], the “DR/DRAD2 PA” value was 0.91. In addition, in test [5], the “DR/DRAD2 AA” value worked out at 2.04.

B10: L72A: FABP probe clone, substitution L72A vs SEQ ID NO: 2 (protein of ADIFAB2) (protein, listed as Rattus norvegicus)
chain: AFDGTWKVDRNENYEKFMEKMGINVVKRKLGAHDNLKLTITQEGNKFTVKESSNFRNIDVVFELGVDFAYSAADGTELTGTWTMEGNKLVGKFKRVDNGKELIAVREISGNELIQTYTYEGVEAKRIFKKE
modifications: PEPTIDE (1)...(131) wild-type rat intestinal fatty acid binding protein
B10: the “DR/DRAD2 OA” value in test [1] is given as 1.15. For the same molecule, the “DR/DRAD2 LA” value in test [2] amounted to 1.14. Also, the “DR/DRAD2 LNA” value in test [3] is given as 1.16. The “DR/DRAD2 PA” value in test [4] is reported as 1.02. The “DR/DRAD2 AA” value in test [5] was 1.12.

B11: W82F, L72A: FABP probe clone, substitutions W82F, L72A vs SEQ ID NO: 2 (protein, listed as Rattus norvegicus)
chain: AFDGTWKVDRNENYEKFMEKMGINVVKRKLGAHDNLKLTITQEGNKFTVKESSNFRNIDVVFELGVDFAYSAADGTELTGTFTMEGNKLVGKFKRVDNGKELIAVREISGNELIQTYTYEGVEAKRIFKKE
modifications: PEPTIDE (1)...(131) wild-type rat intestinal fatty acid binding protein
For the molecule B11, the “DR/DRAD2 OA” value in test [1] is given as 0.78. In addition, the “DR/DRAD2 LA” value in test [2] stood at 1.08. Also, the “DR/DRAD2 LNA” value in test [3] is recorded as 0.76. Besides, the “DR/DRAD2 PA” value in test [4] came to 0.41. In addition, in test [5], the “DR/DRAD2 AA” value was 0.68.

B12: Y117S, L72A: FABP probe clone, substitutions Y117S, L72A vs SEQ ID NO: 2 (protein, listed as Rattus norvegicus)
chain: AFDGTWKVDRNENYEKFMEKMGINVVKRKLGAHDNLKLTITQEGNKFTVKESSNFRNIDVVFELGVDFAYSAADGTELTGTWTMEGNKLVGKFKRVDNGKELIAVREISGNELIQTSTYEGVEAKRIFKKE
modifications: PEPTIDE (1)...(131) wild-type rat intestinal fatty acid binding protein
For the molecule B12, the “DR/DRAD2 OA” value in test [1] is given as 1.19. Further, in test [2], the “DR/DRAD2 LA” value worked out at 1.42. Also, in test [3], the “DR/DRAD2 LNA” value is 1.07. Further, the “DR/DRAD2 PA” value in test [4] is 0.55. In addition, in test [5], the “DR/DRAD2 AA” value is 1.35.

B13: L1P12F12: FABP probe, substitutions Y14L L72G Y117V vs SEQ ID NO: 2 (protein, listed as Rattus norvegicus)
chain: AFDGTWKVDRNENLEKFMEKMGINVVKRKLGAHDNLKLTITQEGNKFTVKESSNFRNIDVVFELGVDFAYSGADGTELTGTWTMEGNKLVGKFKRVDNGKELIAVREISGNELIQTVTYEGVEAKRIFKKE
modifications: PEPTIDE (1)...(131) wild-type rat intestinal fatty acid binding protein
In the case of B13, in test [1], the “ΔR/DRAΔ2 OA” value came out at 0.3. In addition, the “ΔR/DRAΔ2 LA” value in test [2] was 0.5. Further, the “ΔR/DRAΔ2 LNA” value in test [3] is on record as 0.5. In test [4], the “ΔR/DRAΔ2 PA” value was 0.1. Moreover, the “ΔR/DRAΔ2 AA” value in test [5] worked out at 0.9.
